Changes are numbered by the printed parent chain.

Sequences and labels used below:
B1: 1B9 chimeric antibody (antibody, human IgG4 S228P, kappa, F234A L235A, V domains shown)
VH: QVHLQQSGAELMKPGASVKISCKATGYTFNIYWIDWVKQRPGHGLEWIGEILPGSGNTHYNENFKGKATMTADTSSNTAYMQLTSLTSEDSAVYYCARTDGRGYFDYWGQGTTLTVSS
VL: DIVLTQSPASLVVSLGQRATISCRTSKSVSSSAYSYMHWYQQKPGQPPKVLIYLASNLESGVPARFSGSGSGTDFTLNIHPVEEEDAATYYCQHSRELPFTFGSGTKLEIKR
notes: expressed in CHO cells
B2: 2008 chimeric antibody (antibody, human IgG4 S228P, kappa, F234A L235A, V domains shown)
VH: EVLLQQSGPELVKPGASMKISCKASVYSFTAYTMNWVKQSHGKNLEWIGLINPHNGGTRYNQKFKGKATLTLDKSSSTAYMDLLSLTSEDSAVYYCAISRYGSSSFYFDVWGAGTTVAVSS
VL: QIVLSQSPAILSASPGEKVTMTCRASSSISYMHWYQQKPGSSPKPWISATSNLASGVPARFSGSGSGTSYSLTISGVEAEDAATYYCQQWSSNPPTFGGGTNLEIKR
notes: also called 20C8
B3: 2A5 chimeric antibody (antibody, human IgG4 S228P, kappa, F234A L235A, V domains shown)
VH: EVQLQQSGPELVKPGASMKISCKASGYSFTGYTMNWVKQSHGKNLEWIGLINPYNGGTNYNQKFKGKATLTVDKSSSTAYMELLSLTSEDSAVYYCAFSYYGSRGFYFDYWGQGTTLTVSS
VL: QIVLTQSPALMSASPGEKVTMTCSATSSVSYIYWYQQKPRSSPKPWIYLTSNLASGVPARFSGSGSGTSYSLTISSMEAEDAATYYCQQWSSNPPTFGGGTKLEIKR
notes: expressed in CHO cells
B4: MNAC13 (anti-TrKA monoclonal antibody, positive control) (antibody, human IgG4 S228P, kappa, F234A L235A, V domains shown)
VH: EVQLLESGGGLVQPGGSLRLSCAASGFTFSTYTMSWARQAPGKGLEWVAYISKGGGSTYYPDTVKGRFTISRDNSKNTLYLQMNSLRAEDSAVYYCARGAMFGNDFFFPMDRWGQGTLVTVSS
VL: DIVLTQSPSSLSASVGDRVTITCSASSSVSYMHWYQQKPGQAPKLLIYTTSNLASGVPSRFSGSGSGTDYTLTISSLQPEDVATYYCHQWSSYPWTFGGGTKVEIKR
B5: mouse monoclonal antibody produced by hybridoma clone 27H3 (antibody, V domains shown)
VH: QVQLQQSGAELMKPGASVKISCKTTGYRFSSYWIEWVKQRPGHGLEWLGEILPGRGIINYNENFRGKATFTADTSSNTAYVQLSSLTSEDSAVYFCARTDPPYFGVWGAGTTVTVSS
VL: QAVVTQESALTTSPGETVTLTCRSSTGAVTISNYANWVQEKPDHLFTGLIGGTNNRPPGVPARFSGSLIGDKAALTITGAQTEDEAIYFCVLWYSNHWVFGGGTKLTVL
notes: also called 27H3 (positive clone supernatant)
B6: mouse monoclonal antibody produced by hybridoma clone 1B9 (antibody, V domains shown)
VH: B1 VH
VL: DIVLTQSPASLVVSLGQRATISCRTSKSVSSSAYSYMHWYQQKPGQPPKVLIYLASNLESGVPARFSGSGSGTDFTLNIHPVEEEDAATYYCQHSRELPFTFGSGTKLEIK
notes: also called 1B9 (positive clone supernatant)
B7: mouse monoclonal antibody produced by hybridoma clone 2008 (antibody, V domains shown)
VH: B2 VH
VL: QIVLSQSPAILSASPGEKVTMTCRASSSISYMHWYQQKPGSSPKPWISATSNLASGVPARFSGSGSGTSYSLTISGVEAEDAATYYCQQWSSNPPTFGGGTNLEIK
B8: mouse monoclonal antibody produced by hybridoma clone 21E5 (antibody, V domains shown)
VH: QVQLQQSGAELMKPGASMKISCKATGYTFSTYWIEWVKQRPGHGLEWIGENLPGRHITNYNEKFKGKATFTADTSSNTAYMQLSSLTSEDSAVYYCARGRGTYYFDYWGQGTPLTVSS
VL: DIVMTQAAFSTPVTLGTSASISCRSSQSLLHSNGITYLYWYLQKPGQSPQLLIYQMSNLASGVPDRFSSSGSGTDFTLRISRVEAEDVGVYYCAQNLEFPFTFGSGTKLEIK
notes: also called 21E5 (positive clone supernatant)
B9: mouse monoclonal antibody produced by hybridoma clone 2A5 (antibody, V domains shown)
VH: B3 VH
VL: QIVLTQSPALMSASPGEKVTMTCSATSSVSYIYWYQQKPRSSPKPWIYLTSNLASGVPARFSGSGSGTSYSLTISSMEAEDAATYYCQQWSSNPPTFGGGTKLEIK
notes: also called 2A5 (positive clone supernatant)
B10: mouse monoclonal antibody produced by hybridoma clone 23E12 (antibody, V domains shown)
VH: QVQLQQSGAELVRPGTSVKISCKASGYAFTNYWLGWMKQRPGHGLEWIGDFYPRTGNTFYNENFKGKVTLTADKSSNTAYMQLSSLTSEDSAVYLCARAGTGFDYWGQGTTLTVSS
VL: SIVMTQSPKSMSMSVGERVTLSCKASENVGGYVSWYQQKPDQSPKLLIYGASSRHTGVPDRFTGSGSETDFTLTISSVQAEDLAAYHCGQNYIYPFTFGGGTKLEIK
notes: also called 23E12 (positive clone supernatant)
B11: mouse monoclonal antibody produced by hybridoma clone 22D12 (antibody, V domains shown)
VH: EVQLQQSGPELVKPGASMKISCKASGYSITGYTMNWVKQSHGKNLEWIGLVNPYNGGTSYNQKFKGKATLTVDKSSSTAYMELLSLKSEDSAVYYCAISRYGSESWYFDVWGAGTTVTVSS
VL: B7 VL with S26T, I29V, H33Y, S48Y, G76R, N102K, I105K
notes: also called 22D12 (positive clone supernatant)
B12: mouse monoclonal antibody produced by hybridoma clone 15D4 (antibody, V domains shown)
VH: QVQLQQSGAELMKPGASVKISCKATGYTFSSYWIEWVKQRPGHGLEWLGEFLPRSGKTNYNEEFRGKATFTADTSSNTAYMQLSSLTSEDSAVYYCARTDPPYFGVWGAGTMVAVSS
VL: QIVLTQSPPIMSASPGEKVTMTCSASSNISYMHWYQQKSGTSPKRWIYDTSKLASGVPARFSGSGSGTSYSLTISSMEAEDAATYYCQQWSSVPLTFGAGTKLEIK
notes: also called 15D4 (positive clone supernatant)
B13: mouse monoclonal antibody produced by hybridoma clone 4H4 (antibody, V domains shown)
VH: EVQLQQSGPELVKPGASMKISCKASGYSFTGYTMNWVKQSHGKNLEWIGLINPYNGGTRYNQKFKGKATLTVDKSSSTAYMELLSLTSEDSAVYYCASSSYRNDGNWYFDVWGAGTTVTVSS
VL: B12 VL with Q1D, L4M, P9A, N28S, I29V, A79T, V93N, L95P, A99G, I105L
notes: also called 4H4 (positive clone supernatant)

T2 sequence (P04629 33-423 limits assumed): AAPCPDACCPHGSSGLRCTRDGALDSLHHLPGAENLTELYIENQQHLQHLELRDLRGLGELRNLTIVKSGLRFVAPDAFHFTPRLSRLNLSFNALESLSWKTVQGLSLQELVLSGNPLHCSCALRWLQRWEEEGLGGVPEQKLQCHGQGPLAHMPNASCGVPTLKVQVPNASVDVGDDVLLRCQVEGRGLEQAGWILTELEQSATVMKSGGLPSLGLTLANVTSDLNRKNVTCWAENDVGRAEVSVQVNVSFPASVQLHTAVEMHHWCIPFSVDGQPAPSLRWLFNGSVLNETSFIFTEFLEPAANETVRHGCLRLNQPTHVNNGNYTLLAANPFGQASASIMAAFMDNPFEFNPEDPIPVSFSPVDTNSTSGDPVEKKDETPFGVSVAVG
T4 sequence (Q3UFB7 34-420 limits assumed): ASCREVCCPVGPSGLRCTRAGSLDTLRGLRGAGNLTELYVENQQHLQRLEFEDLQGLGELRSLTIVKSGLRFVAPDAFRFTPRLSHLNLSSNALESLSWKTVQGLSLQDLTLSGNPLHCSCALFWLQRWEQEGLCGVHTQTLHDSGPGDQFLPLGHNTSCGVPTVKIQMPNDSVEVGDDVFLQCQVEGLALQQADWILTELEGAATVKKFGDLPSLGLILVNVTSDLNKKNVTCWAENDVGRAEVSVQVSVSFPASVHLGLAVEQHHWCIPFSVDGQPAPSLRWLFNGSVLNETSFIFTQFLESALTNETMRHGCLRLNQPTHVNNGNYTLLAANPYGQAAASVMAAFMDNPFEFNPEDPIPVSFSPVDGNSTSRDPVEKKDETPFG

The target in one test is T1, TrkA protein on HEK-293T-TrkA cells or NIH-3T3-TrkA cells (human, UniProt P04629 33-796).
T1 construct: whole, on cells; Printed only as TrkA for these cells; also called TrkA protein on the membrane of NIH-3T3-TrkA cells
T1 sequence (P04629 33-796): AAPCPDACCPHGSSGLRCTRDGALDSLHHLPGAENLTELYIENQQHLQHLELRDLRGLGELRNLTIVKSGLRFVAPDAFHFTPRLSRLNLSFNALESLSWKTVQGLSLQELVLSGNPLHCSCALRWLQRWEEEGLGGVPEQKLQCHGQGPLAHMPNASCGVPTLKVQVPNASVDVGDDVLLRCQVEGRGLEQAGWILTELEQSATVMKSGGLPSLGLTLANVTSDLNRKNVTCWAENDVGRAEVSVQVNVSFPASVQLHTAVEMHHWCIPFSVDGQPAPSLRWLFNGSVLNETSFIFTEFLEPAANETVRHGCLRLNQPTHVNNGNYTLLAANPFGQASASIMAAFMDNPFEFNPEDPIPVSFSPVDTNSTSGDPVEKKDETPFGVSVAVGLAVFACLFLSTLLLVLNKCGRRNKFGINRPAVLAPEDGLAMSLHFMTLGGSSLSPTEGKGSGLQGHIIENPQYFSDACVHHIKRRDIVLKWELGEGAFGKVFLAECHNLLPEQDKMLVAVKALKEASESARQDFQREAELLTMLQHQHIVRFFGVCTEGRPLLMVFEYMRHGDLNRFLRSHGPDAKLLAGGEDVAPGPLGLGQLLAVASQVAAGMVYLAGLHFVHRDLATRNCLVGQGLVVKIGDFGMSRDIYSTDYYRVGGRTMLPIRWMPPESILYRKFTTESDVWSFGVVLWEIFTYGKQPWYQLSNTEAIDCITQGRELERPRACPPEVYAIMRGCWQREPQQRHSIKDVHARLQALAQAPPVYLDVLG
The experiment in a line: flow cytometry competition: antibody titrated against biotinylated NGF binding to HEK-293T-TrkA cells, % parent.
As for B1, the IC50 (commonly the concentration at which inhibition is half-maximal) is 0.334 µg/mL.
Take B2: the half-inhibitory concentration (IC50) turned out to be 0.822 µg/mL.
In the case of B3, the IC50 is 4.8 µg/mL.

A further test addresses T2, TrKA receptor protein coated in ELISA (Examples 11 and 16) (human, UniProt P04629 33-423, limits assumed).
T2 construct: also called Human-TrKA
The experiment in a line: ELISA plateau, antibody up to 20 µg/mL on TrKA. How it is done:
The TrkA receptor family belongs to receptor tyrosine kinases (RTKs), including TrkA, TrkB, and TrkC, which have high homology. TrkA is a receptor tyrosine kinase of nerve growth factor (NGF) that selectively binds to NGF and is a functional receptor for NGF. In addition to the high-affinity receptor TrkA, NGF can also bind to its low-affinity receptor p75. In the test, the binding of test antibodies at different concentrations (20 μg/mL, 10 μg/mL, 5 μg/mL, 2.5 μg/mL, 1.25 μg/mL, 0.625 μg/mL, 0.313 μg/mL, 0.156 μg/mL, 0.078 μg/mL, 0.039 μg/mL, 0.019 μg/mL) to TrKA, TrKB, TrKC, and P75 respectively was detected by the ELISA method, and the specificity of the test antibody binding to the target TrKA was evaluated. In the FIG. 8, at a certain antibody concentration, the OD₄₅₀ value reflects the binding strength of the antibody to the protein. The larger the reading, the stronger the binding of the antibody to the protein. […] It can be seen that the specificity of the binding of the test antibodies to the target TrKA is very good.
Take B1: the OD450 is roughly 3 OD450.
For the molecule B2, the OD450 was roughly 3 OD450.
Turning to B3, the OD450 is roughly 3 OD450.

The next test has as its target T1, TrkA protein on HEK-293T-TrkA cells or …. The experiment in a line: flow cytometry, antibody titrated on HEK-293T-TrKA cells, Parent %. The source says:
(§1) In FIG. 7, the EC₅₀ (half-binding concentration) value reflects the affinity of the antibody. The smaller the EC₅₀ value, the higher the affinity of the antibody.
As for B1, the EC50 (usually the concentration at which the effect is half-maximal) is 0.0372 µg/mL.
Consider B2, for which the half-maximal effective concentration (EC50) came out at 0.136 µg/mL.
Turning to B3, the EC50 was found to be 0.312 µg/mL.

Another test deals with T2, TrKA receptor protein coated in ELISA …. The experiment in a line: competition ELISA: antibody titrated against biotinylated NGF binding to TrkA, OD450. Background: In an ELISA, binding on a coated surface is turned into a signal by an enzyme label.
Turning to B2, the IC50 was found to be 0.31 µg/mL.
As to B3, the IC50 came to 1.06 µg/mL.

Another test concerns the target T1, TrkA protein on HEK-293T-TrkA cells or …. The experiment in a line: flow cytometry on HEK-293T-TrKA cells.
Excerpt: as §1
(Flow cytometry measures light scatter and fluorescence of single cells or particles in a stream.)
B1 returned an EC50 of less than 1.5 µg/mL.
On to B2, for which the EC50 was less than 1.5 µg/mL.
Turning to B3, the concentration giving a half-maximal response (EC50) is less than 1.5 µg/mL.

The target in the next test is T3, TRKA protein with a histidine tag (human, UniProt P04629 33-423, limits assumed).
T3 construct: it is put last here only for order; also called TRKA (50 µg/ml, 75 kDa, provided by HEC Labs); not shown: histidine tag
T3 sequence (P04629 33-423 limits assumed): as the sequence (P04629 33-423 limits assumed) above
The experiment in a line: BLI (Fortebio Octet RED96), His-tagged TRKA on Ni-NTA sensor, antibody 80-2.93 nM. The procedure:
They were added to each well of the sample plate. […] The KD value is the equilibrium dissociation constant between the antibody and its antigen, and the KD value is inversely proportional to the affinity. The KD value is related to the antibody concentration (the amount of antibody required for a particular experiment). The lower the KD value (the lower the concentration), the higher the affinity of the antibody. High-affinity antibodies are generally considered to be in the low nanomolar range (10⁻⁹).
B1: the affinity, expressed as Kd, was 0.899 nM; the koff (in general, a measure of how fast the partners let go of each other) came to 0.000904 s⁻¹; the association rate constant (kon) – broadly, the second-order rate constant of association – was determined as 1.01e+06 M⁻¹ s⁻¹.
Take B2: the affinity, expressed as Kd, was 0.115 nM; the koff came to 6.33e-05 s⁻¹; the kon was determined as 551000 M⁻¹ s⁻¹.
Take B3: binding was put at a Kd of 0.0162 nM, the koff worked out at 3.6e-06 s⁻¹ and the kon is 222000 M⁻¹ s⁻¹.

The next test has as its target T1, TrkA protein on HEK-293T-TrkA cells or …. The experiment in a line: cell-based or functional assay.
As to B1, the “IC50; p-TrkA level by AlphaLISA in NGF-stimulated NIH3T3-TrkA stable cell line” value stood at 0.0473 µg/mL.
On the same count and under the same terms, the figure for B2 is 0.11 µg/mL.
For the molecule B4, the “IC50; p-TrkA level by AlphaLISA in NGF-stimulated NIH3T3-TrkA stable cell line” value amounted to 0.16 µg/mL.

The next test concerns the target T4, Mouse-TrKA protein (mouse, UniProt Q3UFB7 34-420, limits assumed).
T4 construct: also called Mouse-TrKA receptor
The experiment in a line: ELISA, hybridoma supernatant on Mouse-TrKA. The source says:
The binding of monoclonal antibodies produced by the supernatant of each positive clone to the Mouse-TrKA receptor was detected by ELISA method, and the human-mouse cross reaction of positive clones producing monoclonal antibodies was detected. In FIG. 3, the OD₄₅₀ value reflects the strength of the binding of the antibody to the protein. The larger the reading, the stronger the binding of the antibody to the protein. […] It can be seen that clones 23E12, 21E5, 15D4, and 27H3 can produce monoclonal antibodies that bind to both Human-TrKA and Mouse-TrKA, and there is a human-mouse cross reaction.
B5 had an OD450 of roughly 3.5 OD450.
Take B6: the binding result was “no binding”.
Turning to B7, the binding result was “no binding”.
B8 yielded an OD450 of roughly 3.5 OD450.
On to B9, for which the binding result is “no binding”.
For the molecule B10, the OD450 is roughly 3.5 OD450.
For B11, the binding result is given as “no binding”.
For the molecule B12, the OD450 is roughly 3.5 OD450.
B13: the binding result is on record as “no binding”.

(Values after US20220204630A1 (SUNSHINE LAKE PHARMA, published 2022).)
